Assay [1] concerns the target T1, minimal NANP3 peptide (Plasmodium falciparum (isolate NF54).).
T1 chain: NANPNANPNANP

Assay [2] has as its target T2, NANP5 peptide (NANP 5-mer peptide of the PfCSP repeat) (Plasmodium falciparum (isolate NF54).).
T2 construct: source: bought: Alpha Diagnostic International
T2 chain: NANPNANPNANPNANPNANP
In words: ITC. The settings on record: both partners purified.

Assay [3] concerns the target T3, NANP3 peptide (minimal NANP repeat peptide) (Plasmodium falciparum (isolate NF54).).
T3 construct: source: bought: PSL GmbH, Heidelberg
T3 chain: NANPNANPNANP
In words: ITC. Conditions: both partners purified.

The target in assay [4] is T1, minimal NANP3 peptide. In words: SPR; independent NANP3 SPR affinity measurements of original and mutated antibodies; who was immobilised is not given in the source. Conditions: both partners purified.
The target in assay [5] is T4, full length PfCSP (NF54 strain) (Plasmodium falciparum (isolate NF54)., UniProt P19597).
T4 construct: also called NF54 PfCSP; circumsporozoite protein; source: HEK293F, transient expression, purified (HisTrap Ni/NTA, SEC)
Put plainly: BLI. The settings on record: both partners purified.

For assay [6], the target named is T5, full-length PfCSP with 38 NANP repeats (Plasmodium falciparum (isolate NF54)., UniProt P19597).
T5 construct: also called circumsporozoite protein; NF54
In words: SEC-MALS; 1210 Fab–PfCSP complex; molar mass from two measurements. Conditions: both partners purified. On the technique in general: In gel filtration, larger molecules generally elute earlier.

From publication PMC6420115 (Science (New York, N.y.), 2018) come the findings set out here.

Read-outs that look alike come from different tables or passages of the source.

T4 sequence (P19597 19-374): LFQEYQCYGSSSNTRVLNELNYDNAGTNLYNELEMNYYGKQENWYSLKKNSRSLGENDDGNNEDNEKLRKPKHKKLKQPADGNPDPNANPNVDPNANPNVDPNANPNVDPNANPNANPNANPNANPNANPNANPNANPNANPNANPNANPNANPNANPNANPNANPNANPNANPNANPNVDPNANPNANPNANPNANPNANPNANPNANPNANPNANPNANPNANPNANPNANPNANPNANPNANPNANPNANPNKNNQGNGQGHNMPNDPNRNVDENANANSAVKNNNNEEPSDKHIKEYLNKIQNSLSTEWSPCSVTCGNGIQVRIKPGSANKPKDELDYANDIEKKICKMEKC
T5 sequence (P19597 19-374): as above

B1: 1210_H.N31_Srev (antibody, V domains shown)
VH: QVQLVESGGGVVQPGRSLRLSCAASGFTFSSYGMHWVRQAPGKGLEWVAVIWYDGSKKYYADSVKGRFTISRDNSKNTLYLQMNSLRAEDTAVYYCARVRDSSDYYGDAFDIWGQGTMVTVSS
VL: DIQMTQSPSTLSASVGDRVTITCRASQSISSWLAWYQQKPGKAPKLLIYKASNLESGVPLRFSGSGSGTEFTLTISSLQPDDFATYYCQQYNNYWTFGQGTKVEIK
In the case of B1, in the assay with minimal NANP3 peptide [1], the binding result is on record as “binds”.

B2: 1210 Fab (recombinant Fab for ITC) (Fab, V domains shown)
VH: QVQLVESGGGVVQPGRSLRLSCAASGFTFSNYGMHWVRQAPGKGLEWVAVIWYDGSKKYYADSVKGRFTISRDNSKNTLYLQMNSLRAEDTAVYYCARVRDSSDYYGDAFDIWGQGTMVTVSS
VL: DIQMTQSPSTLSASVGDRVTITCRASQSISSWLAWYQQKPGKAPKLLIYKASNLESGVPLRFSGSGSGTEFTLTISSLQPDDFATYYCQQYNNYWTFGQGTKVEIK
notes: source: HEK293F, transiently expressed, purified (KappaSelect, SEC)
By stoichiometry N is commonly meant a count of units in the complex or per binding partner. Consider B2, for which the “stoichiometry N” value is 1.8 in assay [2] and 0.73 in assay [3].

B3: 1210_H.K56_N^rev (antibody, V domains shown)
VH: QVQLVESGGGVVQPGRSLRLSCAASGFTFSNYGMHWVRQAPGKGLEWVAVIWYDGSNKYYADSVKGRFTISRDNSKNTLYLQMNSLRAEDTAVYYCARVRDSSDYYGDAFDIWGQGTMVTVSS
VL: DIQMTQSPSTLSASVGDRVTITCRASQSISSWLAWYQQKPGKAPKLLIYKASNLESGVPLRFSGSGSGTEFTLTISSLQPDDFATYYCQQYNNYWTFGQGTKVEIK
In the case of B3, the binding result with minimal NANP3 peptide [4] was “binds”.

B4: 1210 H.D100Ymut_K.N92Ymut Fab (recombinant Fab for ITC) (Fab, V domains shown)
VH: QVQLVESGGGVVQPGRSLRLSCAASGFTFSNYGMHWVRQAPGKGLEWVAVIWYDGSKKYYADSVKGRFTISRDNSKNTLYLQMNSLRAEDTAVYYCARVRDSSYYYGDAFDIWGQGTMVTVSS
VL: DIQMTQSPSTLSASVGDRVTITCRASQSISSWLAWYQQKPGKAPKLLIYKASNLESGVPLRFSGSGSGTEFTLTISSLQPDDFATYYCQQYYNYWTFGQGTKVEIK
notes: as for B2
On to B4, for which the “stoichiometry N” value in assay [2] stood at 2.1; in assay [3] it was 0.88.

B5: 1210 IgG (antibody, V domains shown)
VH: QVQLVESGGGVVQPGRSLRLSCAASGFTFSNYGMHWVRQAPGKGLEWVAVIWYDGSKKYYADSVKGRFTISRDNSKNTLYLQMNSLRAEDTAVYYCARVRDSSDYYGDAFDIWGQGTMVTVSS
VL: DIQMTQSPSTLSASVGDRVTITCRASQSISSWLAWYQQKPGKAPKLLIYKASNLESGVPLRFSGSGSGTEFTLTISSLQPDDFATYYCQQYNNYWTFGQGTKVEIK
notes: IgG1; source: HEK293F, purified (Protein G Sepharose)
One may read the Kd as the equilibrium constant for the complex coming apart. Read a high Kd as weaker binding. Regarding B5, in assay [5], the Kd is less than 0.001 nM.

B6: 2163_KN (antibody, V domains shown)
VH: QVQLVESGGGVVQPGRSLRLSCAASGFTFSSYGMHWVRQAPGKGLEWVAVIWYDGSKKYYADSVKGRFTISRDNSKNTLYLQMNSLRAEDTAVYYCARVQTTTGGGSCCPFDYWGQGTLVTVSS
VL: DIQMTQSPSSLSASVGDRVTITCRASQSISSWLAWYQQKPGKAPKLLIYKASSLESGVPSRFSGSGSGTEFTLTISSLQPDDFATYYCQQYNNYWTFGQGTKVEIK
In the case of B6, the binding result with minimal NANP3 peptide [1] is “binds”.

B7: 1210_K. N93_S^rev (antibody, V domains shown)
VH: QVQLVESGGGVVQPGRSLRLSCAASGFTFSNYGMHWVRQAPGKGLEWVAVIWYDGSKKYYADSVKGRFTISRDNSKNTLYLQMNSLRAEDTAVYYCARVRDSSDYYGDAFDIWGQGTMVTVSS
VL: DIQMTQSPSTLSASVGDRVTITCRASQSISSWLAWYQQKPGKAPKLLIYKASNLESGVPLRFSGSGSGTEFTLTISSLQPDDFATYYCQQYNSYWTFGQGTKVEIK
On to B7, for which the binding result with minimal NANP3 peptide [4] is recorded as “binds”.

B8: 1210 germline antibody Fab (recombinant Fab for ITC) (Fab, V domains shown)
VH: QVQLVESGGGVVQPGRSLRLSCAASGFTFSSYGMHWVRQAPGKGLEWVAVIWYDGSNKYYADSVKGRFTISRDNSKNTLYLQMNSLRAEDTAVYYCARVRDSSDYYGDAFDIWGQGTMVTVSS
VL: not shown
notes: as for B2
For the molecule B8, the “stoichiometry N” value came out at 1.9 in assay [2] and 0.92 in assay [3].

B9: 1210_H.K56_Nrev_K.N93_Srev Fab (recombinant Fab for ITC) (Fab, V domains shown)
VH: QVQLVESGGGVVQPGRSLRLSCAASGFTFSNYGMHWVRQAPGKGLEWVAVIWYDGSNKYYADSVKGRFTISRDNSKNTLYLQMNSLRAEDTAVYYCARVRDSSDYYGDAFDIWGQGTMVTVSS
VL: DIQMTQSPSTLSASVGDRVTITCRASQSISSWLAWYQQKPGKAPKLLIYKASNLESGVPLRFSGSGSGTEFTLTISSLQPDDFATYYCQQYNSYWTFGQGTKVEIK
notes: as for B2
As to B9, the results for the “stoichiometry N” value in assay [2] and in assay [3] were 1.7 and 0.94, respectively.

B10: 1210_YY IgG (1210 H.D100Ymut_K.N92Ymut) (antibody, V domains shown)
VH: QVQLVESGGGVVQPGRSLRLSCAASGFTFSNYGMHWVRQAPGKGLEWVAVIWYDGSKKYYADSVKGRFTISRDNSKNTLYLQMNSLRAEDTAVYYCARVRDSSYYYGDAFDIWGQGTMVTVSS
VL: DIQMTQSPSTLSASVGDRVTITCRASQSISSWLAWYQQKPGKAPKLLIYKASNLESGVPLRFSGSGSGTEFTLTISSLQPDDFATYYCQQYYNYWTFGQGTKVEIK
notes: as for B5
Molecule B10 had a Kd in assay [5] of 0.66 nM.

B11: 1210 antigen-binding fragment (Fab) (Fab, V domains shown)
VH: QVQLVESGGGVVQPGRSLRLSCAASGFTFSNYGMHWVRQAPGKGLEWVAVIWYDGSKKYYADSVKGRFTISRDNSKNTLYLQMNSLRAEDTAVYYCARVRDSSDYYGDAFDIWGQGTMVTVSS
VL: DIQMTQSPSTLSASVGDRVTITCRASQSISSWLAWYQQKPGKAPKLLIYKASNLESGVPLRFSGSGSGTEFTLTISSLQPDDFATYYCQQYNNYWTFGQGTKVEIK
B11: the “stoichiometry N” value in assay [6] was approximately 12 Fabs per PfCSP.

B12: 2163 (antibody, V domains shown)
VH: QVQLVESGGGVVQPGRSLRLSCAASGFTFSSYGMHWVRQAPGKGLEWVAVIWYDGSNKYYADSVKGRFTISRDNSKNTLYLQMNSLRAEDTAVYYCARVQTTTGGGSCCPFDYWGQGTLVTVSS
VL: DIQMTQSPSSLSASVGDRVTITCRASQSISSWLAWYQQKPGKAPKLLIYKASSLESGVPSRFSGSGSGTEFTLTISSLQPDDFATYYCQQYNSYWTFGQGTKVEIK
In the case of B12, in the assay with minimal NANP3 peptide [1], the binding result was “binds”.

B13: 2163_H.S31_Nmut (antibody, V domains shown)
VH: QVQLVESGGGVVQPGRSLRLSCAASGFTFSNYGMHWVRQAPGKGLEWVAVIWYDGSNKYYADSVKGRFTISRDNSKNTLYLQMNSLRAEDTAVYYCARVQTTTGGGSCCPFDYWGQGTLVTVSS
VL: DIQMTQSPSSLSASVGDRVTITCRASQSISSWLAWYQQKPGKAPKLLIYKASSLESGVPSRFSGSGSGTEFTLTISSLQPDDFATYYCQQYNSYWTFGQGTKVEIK
With B13, the binding result with minimal NANP3 peptide [1] is recorded as “binds”.

B14: 2163_H.N56_Kmut (antibody, V domains shown)
VH: QVQLVESGGGVVQPGRSLRLSCAASGFTFSSYGMHWVRQAPGKGLEWVAVIWYDGSKKYYADSVKGRFTISRDNSKNTLYLQMNSLRAEDTAVYYCARVQTTTGGGSCCPFDYWGQGTLVTVSS
VL: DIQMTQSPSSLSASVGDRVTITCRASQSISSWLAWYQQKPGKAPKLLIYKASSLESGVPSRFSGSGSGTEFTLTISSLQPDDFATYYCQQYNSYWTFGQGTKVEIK
Consider B14, for which the binding result with minimal NANP3 peptide [1] was “binds”.

B15: 2163_H.V50_Imut (antibody, V domains shown)
VH: QVQLVESGGGVVQPGRSLRLSCAASGFTFSSYGMHWVRQAPGKGLEWVAIIWYDGSNKYYADSVKGRFTISRDNSKNTLYLQMNSLRAEDTAVYYCARVQTTTGGGSCCPFDYWGQGTLVTVSS
VL: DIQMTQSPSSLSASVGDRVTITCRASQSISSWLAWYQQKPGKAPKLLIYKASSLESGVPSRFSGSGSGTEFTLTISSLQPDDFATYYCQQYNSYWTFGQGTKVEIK
Regarding B15, the binding result with minimal NANP3 peptide [1] was “binds”.
